Source: PMC3480639

Columns and labels:
[1] = molecular target: H2B:mRFP (UniProt P06899); test: FRET or BRET; FLIM-FRET in cells in interphase; GFP fusion as donor, mRFP or dsRed fusion as acceptor; multiphoton excitation at 890 nm; at least 20 cells per condition
[2] = molecular target: NUP153 (endogenous, DT40); test: TrAP-tag pull-down and mass spectrometry; conditions: DT40 cells blocked in mitosis with colcemid, then forced to exit from mitosis by addition of roscovitine; parent: 8
[3] = molecular target: Importin β (endogenous, DT40); test: TrAP-tag pull-down and mass spectrometry; conditions: DT40 cells blocked in mitosis with colcemid, then forced to exit from mitosis by addition of roscovitine; parent: 15
[4] = molecular target: histone H2B; test: TrAP-tag pull-down and mass spectrometry; conditions: DT40 cells blocked in mitosis with colcemid, then forced to exit from mitosis by addition of roscovitine; parent: 12
[5] = molecular target: histone H3; test: TrAP-tag pull-down and mass spectrometry; conditions: DT40 cells blocked in mitosis with colcemid, then forced to exit from mitosis by addition of roscovitine; parent: 17
[6] = molecular target: PP1; test: TrAP-tag pull-down and mass spectrometry; conditions: DT40 cells blocked in mitosis with colcemid, then forced to exit from mitosis by addition of roscovitine; parent: 18
[7] = molecular target: NUP50 (endogenous, DT40); test: TrAP-tag pull-down and mass spectrometry; conditions: DT40 cells blocked in mitosis with colcemid, then forced to exit from mitosis by addition of roscovitine; parent: 17

| Substance | E FRET [1] | other: number of peptides identified by mass spectrometry [2] | other: number of peptides identified by mass spectrometry [3] | other: number of peptides identified by mass spectrometry [4] | other: number of peptides identified by mass spectrometry [5] | other: number of peptides identified by mass spectrometry [6] | other: number of peptides identified by mass spectrometry [7] |
| --- | --- | --- | --- | --- | --- | --- | --- |
| GFP:Repo-Man (from UniProt Q69YH5 1-1023) (natural protein) | 22% |  |  |  |  |  |  |
| TrAP:hRepo-Man^WT (from UniProt Q69YH5) RVTF>RAXA (V>A; F>A in the RVTF motif, residue numbers not printed) |  | 34 | 35 | 14 | 12 | -0 | 17 |
